Laboratory results from patent US20030206891A1, “Rapamycin-based biological regulation” (ARIAD Gene Therapeutics, Inc., priority 1995, published 2003).

How the values were obtained:
[1] = target: His6-flag-FKBP protein with FK506 (human); assay: phage display affinity enrichment: 1 µM His6-flag-FKBP plus FK506, Ni-NTA agarose capture, acid elution
[2] = target: His6-flag-FKBP protein alone (ethanol, no drug) (human); assay: phage display affinity enrichment: 1 µM His6-flag-FKBP with ethanol alone, Ni-NTA agarose capture, acid elution
[3] = target: His6-flag-FKBP protein with rapamycin (human); assay: phage display affinity enrichment: FRAP phagemids mixed with pBC control phagemids, 1 µM His6-flag-FKBP plus rapamycin, Ni-NTA agarose capture, acid elution
[4] = target: 1FRB-p65(361-550) (human) (UniProt P42345); assay: cell-based or functional assay

Sequence of His6-flag-FKBP protein with FK506 (human) (chain, as listed by the source limits assumed): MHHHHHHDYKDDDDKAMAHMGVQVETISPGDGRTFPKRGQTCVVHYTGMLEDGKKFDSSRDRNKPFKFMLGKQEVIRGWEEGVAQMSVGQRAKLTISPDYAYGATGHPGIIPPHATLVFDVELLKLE
Sequence of His6-flag-FKBP protein with rapamycin (human) (chain, as listed by the source limits assumed): as above
Sequence of His6-flag-FKBP protein alone (ethanol, no drug) (human) (chain, as listed by the source limits assumed): as above

Substance	fold enrichment of FRAP phage compared to the starting mixture (carb/chlor cfu ratio) [1] [fold]	fold enrichment of FRAP phage compared to the starting mixture (carb/chlor cfu ratio) [2] [fold]	fold enrichment of FRAP phage compared to the starting mixture (carb/chlor cfu ratio) [3] [fold]	SEAP activity of the stable clone at 1100 nM rapamycin (arbitrary fluorescence units) [4]	SEAP activity of the stable clone, no rapamycin (mock transfected cells 47 units) (arbitrary fluorescence units) [4]	SEAP secretion, enhancement with rapamycin over background [4] [fold]	SEAP secretion, transiently transfected HT1080 cells: lowest rapamycin concentration with detectable signal [4] [nM]	SEAP secretion, transiently transfected HT1080 cells: rapamycin concentration of the peak [4] [nM]
phagemids displaying FRAP (amino acids 2015-2114) (from UniProt P42345 2015-2114; P03661 216-424)	2.4	1.5	271	–	–	–	–	–
ZFHD1-3FKBP (from UniProt P62942 1-107; P62942 1-107; P62942 1-107)	–	–	–	> 90000	54	> 1000	0.5	5
